Laboratory results published in patent US20030203372A1, “Analysis method” (priority 2000, published 2003).

B1: p2A23 (nucleic acid, listed as Homo Sapiens)
DNA: AGAAGAAGCTGGCCAAGGATATGGGAGCAACCACCATGGACCAGAAGTCTCTCTGGGCAGGTGTAGTGGTCTTGCTGCTTCTCCAGGGAGGATCTGCCTACAAACTGGTTTGCTACTTTACCAACTGGTCCCAGGACCGGCAGGAACCAGGAAAATTCACCCCTGAGAATATTGACCCCTTCCTATGCTCTCATCTCATCTATTCATTCGCCAGCATCGAAAACAACAAGGTTATCATCAAGGACAAGAGTGAAGTGATGCTCTACCAGACCATCAACAGTCTCAAAACCAAGAATCCCAAACTGAAAATTCTCTTGTCCATTGGAGGGTACCTGTTTGGTTCCAAAGGGTTCCACCCTATGGTGGATTCTTCTACATCACGCTTGGAATTCATTAACTCCATAATCCTGTTTCTGAGGAACCATAACTTTGATGGACTGGATGTAAGCTGGATCTACCCAGATCAGAAAGAAAACACTCATTTCACTGTGCTGATTCATGAGTTAGCAGAAGCCTTTCAGAAGGACTTCACAAAATCCACCAAGGAAAGGCTTCTCTTGACTGCGGGCGTATCTGCAGGGAGGCAAATGATTGATAACAGCTATCAAGTTGAGAAACTGGCAAAAGATCTGGATTTCATCAACCTCCTGTCCTTTGACTTCCATGGGTCTTGGGAAAAGCCCCTTATCACTGGCCACAACAGCCCTCTGAGCAAGGGGTGGCAGGACAGAGGGCCAAGCTCCTACTACAATGTGGAATATGCTGTGGGGTACTGGATACATAAGGGAATGCCATCAGAGAAGGTGGTCATGGGCATCCCCACATATGGGCACTCCTTCACACTGGCCTCTGCAGAAACCACCGTGGGGGCCCCTGCCTCTGGCCCTGGAGCTGCTGGACCCATCACAGAGTCTTCAGGCTTCCTGGCCTATTATGAGATCTGCCAGTTCCTGAAAGGAGCCAAGATCACGCGCCTCCAGGATCAGCAGGTTCCCTACGCAGTCAAGGGGAACCAGTGGGTGGGCTATGATGATGTGAAGAGTATGGAGACCAAGGTTCAGTTCTTAAAGAATTTAAACCTGGGAGGAGCCATGATCTGGTCTATTGACATGGATGACTTCACTGGCAAATCCTGCAACCAGGGCCCTTACCCTCTTGTCCAAGCAGTCAAGAGAAGCCTTGGCTCCTTGTGAAGGATTAACTTACAGAGAAGCAGGCAAGATGACCTTGCTGCCTGGGGCCTGCTCTCTCCCAGGAATTCTCATGTGGGATTCCCCTTGCCAGGCTGGCCTTTGGATCTCTCTTCCAAGCCTTTCCTGACTTCCTCTTAGATCATAGATTGGACCTGGTTTTGTTTTCCTGCAGCTGTTGACTTGTTGCCCTGAAGTACAATAAAAAAAATTCATTTTGCTCCAGTA
B2: p1K9 (nucleic acid, listed as Homo Sapiens)
DNA: AGTGTGAAATCTTCAGAGAAGAATTTCTCTTTAGTTCTTTGCAAGAAGGTAGAGATAAAGACACTTTTTCAAAAATGGCAATGGTATCAGAATTCCTCAAGCAGGCCTGGTTTATTGAAAATGAAGAGCAGGAATATGTTCAAACTGTGAAGTCATCCAAAGGTGGTCCCGGATCAGCGGTGAGCCCCTATCCTACCTTCAATCCATCCTCGGATGTCGCTGCCTTGCATAAGGCCATAATGGTTAAAGGTGTGGATGAAGCAACCATCATTGACATTCTAACTAAGCGAAACAATGCACAGCGTCAACAGATCAAAGCAGCATATCTCCAGGAAACAGGAAAGCCCCTGGATGAAACACTTAAGAAAGCCCTTACAGGTCACCTTGAGGAGGTTGTTTTAGCTCTGCTAAAAACTCCAGCGCAATTTGATGCTGATGAACTTCGTGCTGCCATGAAGGGCCTTGGAACTGATGAAGATACTCTAATTGAGATTTTGGCATCAAGAACTAACAAAGAAATCAGAGACATTAACAGGGTCTACAGAGAGGAACTGAAGAGAGATCTGGCCAAAGACATAACCTCAGACACATCTGGAGATTTTCGGAACGCTTTGCTTTCTCTTGCTAAGGGTGACCGATCTGAGGACTTTGGTGTGAATGAAGACTTGGCTGATTCAGATGCCAGGGCCTTGTATGAAGCAGGAGAAAGGAGAAAGGGGACAGACGTAAACGTGTTCAATACCATCCTTACCACCAGAAGCTATCCACAACTTCGCAGAGTGTTTCAGAAATACACCAAGTACAGTAAGCATGACATGAACAAAGTTCTGGACCTGGAGTTGAAAGGTGACATTGAGAAATGCCTCACAGCTATCGTGAAGTGCGCCACAAGCAAACCAGCTTTCTTTGCAGAGAAGCTTCATCAAGCCATGAAAGGTGTTGGAACTCGCCATAAGGCATTGATCAGGATTATGGTTTCCCGTTCTGAAATTGACATGAATGATATCAAAGCATTCTATCAGAAGATGTATGGTATCTCCCTTTGCCAAGCCATCCTGGATGAAACCAAAGGAGATTATGAGAAAATCCTGGTGGCTCTTTGTGGAGGAAACTAAACATTCCCTTGATGGTCTCAAGCTATGATCAGAAGACTTTAATTATATATTTTCATCCTATAAGCTTAAATAGGAAAGTTTCTTCAACAGGATTACAGTGTAGCTACCTACATGCTGAAAAATATAGCCTTTAAATCATTTTTATATTATAACTCTGTATAATAGAGATAAGTCCATTTTTTAAAAATGTTTTCCCCAAACCATAAAACCCTATACAAGTTGTTCTAGTAACAATACATGAGAAAGATGTCTATGTAGCTGAAAATAAAATGACGTCACAAGAC

Tests used:
[1] = system: human breast and ovary tumors; assay: Custom gene array, breast and ovary tumors versus normal adjacent tissue; settings: Table 19; for gene expression level on custom gene array, Breast nor H / gene expression level on custom gene array, Breast nor K / gene expression level on custom gene array, Ovary nor E / gene expression level on custom gene array, Ovary nor F / gene expression level on custom gene array, Ovary nor G: normal adjacent tissue; for gene expression level on custom gene array, Breast nor H / gene expression level on custom gene array, Breast tum H: patient H; for gene expression level on custom gene array, Breast nor K / gene expression level on custom gene array, Breast tum K: patient K; for gene expression level on custom gene array, Breast tum H / gene expression level on custom gene array, Breast tum K / gene expression level on custom gene array, Ovary tum E / gene expression level on custom gene array, Ovary tum F / gene expression level on custom gene array, Ovary tum G: tumor tissue; for gene expression level on custom gene array, Ovary nor E / gene expression level on custom gene array, Ovary tum E: patient E; for gene expression level on custom gene array, Ovary nor F / gene expression level on custom gene array, Ovary tum F: patient F; for gene expression level on custom gene array, Ovary nor G / gene expression level on custom gene array, Ovary tum G: patient G
Excerpt: A study has been performed to examine the expression of these genes in a selection of breast and ovary tumors, comparing expression with normal adjacent tissue from the same patient. There is expected to be a large degree of variation between different patients, and the study here contains only 5 patients with a range of diagnoses.
Patients are designated as Letters:
E: person. Diagnosis: ovarian adenocarcinoma. Normal ovarian tissue derived from an age-matched separate individual.
: person. Diagnosis: poorly differentiated adenocarcinoma. Normal ovarian tissue derived from the same individual.
G: person. Diagnosis: moderately-differentiated adenocarcinoma. Normal ovarian tissue derived from the same individual.
H: person. Diagnosis: invasive ductal carcinoma. Normnal breast tissue derived from the same individual.
K: person. Diagnosis: invasive ductal carcinoma. Normal breast tissue derived from the same individual.
Data normalisation was done per-chip to correct for differences in labelling and hybridization efficiency. Per-gene normalisation was done such that the expression values of each gene are relative to the median value of that gene throughout the series of samples. By comparing the expression values under normal (nor) and tumor (turn) for a single patient, differences in expression between the normal and malignant tissue of that patient can be inferred.

[2] = system: primary human cell cultures (11 cell types); assay: Custom gene array, 11 human cell types in normoxia or hypoxia for 6 hr and 18 hr; type: cell-based
Experimental: Equivalent cultures of non-immortalized, non-transformed primary human cells of 10 distinct types, were cultured in either normoxia or were exposed to hypoxia for 6 hr and 18 hr, and gene expression changes were determined. […] Moreover, unlike the vast majority of information in the public domain relating to genes responsive to hypoxia, all of these cells were human and were cultured without any modifications following isolation from the human donors.
A non-primary cell type (#9) was used to represent neurons, since primary human neurons are difficult to source. Therefore a total of 11 cell types are compared. It should be noted that RNA from hepatocytes at the […] timepoint of hypoxia was not available for this work.
Each RNA sample was hybridised to duplicate or triplicate arrays, to ensure reproducible data, and was analysed using GeneSpring software. Data from replicate arrays were merged during analysis to generate mean values. Data normalisation was achieved per-array using the aforementioned list of control genes, such that differences in RNA labelling or hybridization due to experimental variation were corrected by referencing each gene to the mean value of the reference genes on the same array. Also, for each gene, expression values were obtained which represent the value in each experimental condition (e.g. macrophages 6 hr hypoxia) as compared to the median of value of that gene throughout the full range of experimental conditions (i.e. from all cell types). […] This is common in microarray data analysis.

Molecule | gene expression level on custom gene array, Breast nor H [1] | gene expression level on custom gene array, Breast nor K [1] | gene expression level on custom gene array, Breast tum H [1] | gene expression level on custom gene array, Breast tum K [1] | gene expression level on custom gene array, Ovary nor E [1] | gene expression level on custom gene array, Ovary nor F [1] | gene expression level on custom gene array, Ovary nor G [1] | gene expression level on custom gene array, Ovary tum E [1] | gene expression level on custom gene array, Ovary tum F [1] | gene expression level on custom gene array, Ovary tum G [1] | other results
B1 | 1.36 | 0.91 | 2.22 | 2.01 | 0.66 | 0.48 | 4.18 | 0.78 | 0.61 | 0.74 | mRNA expression level ([2]; cell type #1, HY (hypoxia) 6 hr): 1.24; mRNA expression level ([2]; cell type #1, HY (hypoxia) 18 hr): 1.15; mRNA expression level ([2]; cell type #1, NO (normoxia)): 1.79; mRNA expression level ([2]; cell type #2, HY (hypoxia) 6 hr): 2.26; mRNA expression level ([2]; cell type #2, HY (hypoxia) 18 hr): 1.79; mRNA expression level ([2]; cell type #2, NO (normoxia)): 1.81; mRNA expression level ([2]; cell type #3, HY (hypoxia) 6 hr): 1.28; mRNA expression level ([2]; cell type #3, HY (hypoxia) 18 hr): 0.95; mRNA expression level ([2]; cell type #3, NO (normoxia)): 1.11; mRNA expression level ([2]; cell type #4, HY (hypoxia) 6 hr): 0.87; mRNA expression level ([2]; cell type #4, HY (hypoxia) 18 hr): 0.77; mRNA expression level ([2]; cell type #4, NO (normoxia)): 1.26; mRNA expression level ([2]; cell type #5, HY (hypoxia) 6 hr): 1.43; mRNA expression level ([2]; cell type #5, NO (normoxia)): 0.77; mRNA expression level ([2]; cell type #6, HY (hypoxia) 6 hr): 0.91; mRNA expression level ([2]; cell type #6, NO (normoxia)): 0.76
B2 | 1.20 | 0.23 | 0.54 | 0.12 | 0.46 | 1.33 | 1.07 | 4.09 | 1.17 | 0.31 | –
